Patent US20200009213A1, “Specific Increase of Dopamine Synthesis THrough Targeting of the Guanylate Cyclase 2C Receptor in the Treatment of Parkinson's Disease” (Universiteit van Amsterdam, priority 2017, published 2020)
Values belong to the compound of their own block, whether it stands above or below them.

Assays:
[1] = system: Th Ser40 phosphorylation (cGMP-derived signaling) in HEK cells; assay: Ser40 phosphorylation of Th in HEK cells transfected with Th (western blotting, ratio P-Ser40/Total Th); assay type: cell-based, mouse Th in HEK cells; details: 500 μM, 1 hour, 48 hours post-plating, n=6, p<0.0001
Protocol: FIG. 3. HEK cells are a suitable model to study GUCY2C-induced Ser40 phosphorylation. (A) RT-qPCR data from intact HEK extracts. Input material was 10 ng of total RNA. Cp corresponds to the cycle number in which the expression starts to be considered positive. (-) represents the water control, which is negative in every case. (B) HEK cultures were transfected with Th and treated with a cGMP analogue 48 hours post-plating. Changes in Ser40 phosphorylation were studied. The graph represents the statistical analysis (n=6; Mean±SEM). Unpaired Student's t-test (p-value: ****<0.0001). Hereon, ‘Fold Change’ corresponds to the ratio P-Ser40/Total Th.
HEK cells were maintained in 100-mm Petri dishes and grown in DMEM medium supplemented with L-glutamine, penicillin-streptomycin (Pen&Strep) and 10% heat-inactivated fetal bovine serum (HIFBS). Growing conditions were 37° C. and 5% CO2. For every-other-day passages, HEK cultures were split at a 1:3 dilution. From Friday to Monday, the split proportion was doubled for all cell lines. For passaging, cultures were rinsed with PBS and incubated with 1 mL of trypsin during 5 minutes. Cells were resuspended in growth medium and finally split to the proper dilution. The experiments were performed in 12-well plates. For immunocytochemistry analysis, sterile 18-mm coverslips were added prior to the plating. 500 μL of cell resuspension was seeded in each well. […]

human GUCY2C = molecular target: T1, human GUCY2C (Homo sapiens, UniProt P25092); assay: Ser40 phosphorylation of Th in HEK cells co-transfected with Th and GUCY2C (western blotting, ratio P-Ser40/Total Th); assay type: cell-based; details: guanylin 10 μM, 1 hour; for P-Ser40 levels (Fold Change = ratio P-Ser40/Total Th): HEK cells co-transfected with Th and GUCY2C, uroguanylin 1 μM, p<0.01
T1 construct: expressed in transfected cells; host or cells: HEK cells
T1 sequence (P25092 24-1073): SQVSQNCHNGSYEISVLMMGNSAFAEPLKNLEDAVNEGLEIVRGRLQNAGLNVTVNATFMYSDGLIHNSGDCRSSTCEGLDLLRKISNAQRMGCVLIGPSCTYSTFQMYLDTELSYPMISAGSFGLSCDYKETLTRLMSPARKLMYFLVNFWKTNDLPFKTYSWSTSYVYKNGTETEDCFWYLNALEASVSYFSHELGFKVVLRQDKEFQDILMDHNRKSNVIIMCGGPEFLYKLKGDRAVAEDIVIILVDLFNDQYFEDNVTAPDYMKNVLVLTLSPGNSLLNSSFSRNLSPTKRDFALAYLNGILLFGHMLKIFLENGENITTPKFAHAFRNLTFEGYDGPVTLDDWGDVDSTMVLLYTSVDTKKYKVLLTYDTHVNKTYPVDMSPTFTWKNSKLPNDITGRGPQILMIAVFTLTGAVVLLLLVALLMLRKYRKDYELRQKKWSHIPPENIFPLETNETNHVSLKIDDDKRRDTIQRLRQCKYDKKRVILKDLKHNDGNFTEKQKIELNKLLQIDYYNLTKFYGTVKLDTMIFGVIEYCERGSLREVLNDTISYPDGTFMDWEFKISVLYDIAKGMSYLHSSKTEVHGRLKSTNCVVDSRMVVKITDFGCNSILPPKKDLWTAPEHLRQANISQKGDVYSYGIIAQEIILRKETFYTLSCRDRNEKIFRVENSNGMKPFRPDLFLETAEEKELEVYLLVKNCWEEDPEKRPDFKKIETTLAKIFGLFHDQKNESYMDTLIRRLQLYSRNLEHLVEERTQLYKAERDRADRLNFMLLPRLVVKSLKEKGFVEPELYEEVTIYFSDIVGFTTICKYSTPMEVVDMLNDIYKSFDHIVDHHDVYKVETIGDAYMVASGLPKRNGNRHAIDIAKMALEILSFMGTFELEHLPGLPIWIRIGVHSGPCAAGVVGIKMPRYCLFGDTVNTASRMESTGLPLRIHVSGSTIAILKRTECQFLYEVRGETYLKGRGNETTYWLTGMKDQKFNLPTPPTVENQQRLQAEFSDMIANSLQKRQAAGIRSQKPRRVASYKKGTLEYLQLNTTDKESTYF
Protocol: FIG. 4. GUCY2C activation increases Ser40 phosphorylation. Immunocytochemistry images (A) and western blotting analysis (B) of HEK cultures transfected with Th or Th+GUCY2C. (C) Co-transfected HEK cells were treated with guanylin (G) or uroguanylin (UroG) and changes in Ser40 phosphorylation were studied. The graph represents the statistical analysis (n=3 for Control, n=6 for Guanylin, n=9 for Uroguanylin; Mean±SEM). Unpaired Student's t-test (p-value: **<0.01).
(§1) FIG. 5. The increase in Ser40 phosphorylation is proportional to the produced amount of cGMP upon GUCY2C stimulation. (A) HEK cultures were treated with guanylin, in the presence or absence of IBMX. […] Unpaired Student's t-test (p-values: ****<0.0001, **<0.01, *<0.05). (B) HEK cells were co-transfected with Th and either the wt GUCY2C or a gain-of-function mutant (R792S). Ser40 phosphorylation was studied following guanylin treatment (G). […] Unpaired Student's t-test (p-values: ***<0.001, **<0.01).
HEK cells were maintained in 100-mm Petri dishes and grown in DMEM medium supplemented with L-glutamine, penicillin-streptomycin (Pen&Strep) and 10% heat-inactivated fetal bovine serum (HIFBS). Growing conditions were 37° C. and 5% CO2. For every-other-day passages, HEK cultures were split at a 1:3 dilution. From Friday to Monday, the split proportion was doubled for all cell lines. For passaging, cultures were rinsed with PBS and incubated with 1 mL of trypsin during 5 minutes. Cells were resuspended in growth medium and finally split to the proper dilution. The experiments were performed in 12-well plates. For immunocytochemistry analysis, sterile 18-mm coverslips were added prior to the plating. 500 μL of cell resuspension was seeded in each well. If experiments were to be performed 48 hours after the plate preparation, 1:5 was the seeding ratio for HEK cells. When the experiments took place 96 hours post-plating, 1:7 was the working dilution for HEK cells. Unless otherwise stated, HEK cultures were processed 96 hours post-plating.
HEK cells were transfected using the calcium-phosphate method. […]

[2] = injected into the blood stream; cited from earlier work
GUCY2C R792S mutant = molecular target: T2, GUCY2C R792S mutant (Homo sapiens, UniProt P25092, R792S); assay: Ser40 phosphorylation in HEK cells co-transfected with Th and GUCY2C gain-of-function mutant R792S versus wt; assay type: cell-based; details: HEK cells co-transfected with Th and wt or R792S GUCY2C; FIG. 5B
T2 construct: expressed in transfected cells; host or cells: HEK cells
T2 sequence (P25092 24-1073 R792S): as the sequence (P25092 24-1073) above, with R769S counted along it
Protocol: as §1
HEK cells were transfected using the calcium-phosphate method. 12-well plates were refreshed with 500 μL of growth medium before transfection. […] The plasmid mixture was taken into a final concentration of 250 mM CaCl2 in a total volume of 110 μL. A complementary tube was filled with 110 μL of HEPES-buffered saline 2× (HEBS 2×: 1.5 mM Na2HPO4, 50 mM HEPES pH 7.05, 280 mM NaCl). […]
Up to 35 μL of sample was loaded in each slot and run in the presence of tris-glycine buffer and 0.1% SDS. […] After additional washings during 1 hour, blots were exposed to an enhanced chemiluminescence solution and the signal was detected using an Odyssey imager (LI-COR). […] For graph quantifications, ‘Fold Change’ represents the ratio P-Ser40/Total Th. Statistical comparisons between pair of groups correspond to unpaired Student's t-tests, as calculated with GraphPad Prism. […]

Compound: Nc1nc2c(nc(Br)n2[C@@H]2O[C@@H]3COP(=O)(O)O[C@H]3[C@H]2O)c(=O)[nH]1 [8-Bromo-cGMP]
P-Ser40 levels (Fold Change = ratio P-Ser40/Total Th) [1]: small but significant increase in P-Ser40 levels

Compound: CC(C)Cn1c(=O)n(C)c(=O)c2[nH]cnc21 [IBMX, 3-isobutyl-1-methylxanthine]
Ser40 phosphorylation with PDE inhibition (human GUCY2C; HEK cultures, IBMX 100 μM, FIG. 5A): potentiated the increase in Ser40 phosphorylation as compared to guanylin administration

P-Ser40 levels (Fold Change = ratio P-Ser40/Total Th) (human GUCY2C): increase P-Ser40 levels
boost in Ser40 phosphorylation upon guanylin treatment, R792S mutant compared to wt receptor (GUCY2C R792S mutant): 1.5 fold
Compound: guanylin: natural agonistic ligand of GUCY2C; a 15 amino acid polypeptide (PGTCEICAYAACTGC)
passage of the blood-brain barrier [2]: rapidly enters the brain

P-Ser40 levels (Fold Change = ratio P-Ser40/Total Th) (human GUCY2C): increase P-Ser40 levels
Compound: uroguanylin: natural agonistic ligand of GUCY2C; a 16 amino acid peptide (NDDCELCVNVACTGCL)
